This is an account of results in patent US20140179593A1 (published 2014).

Experiment in all cases: ITC, peptide titrated into Dcn PONY domain
Test [1] has as its target T1, hDcn3^P (PONY domain of human DCUN1D3) (Homo sapiens, UniProt Q8IWE4 86-304).
T1 sequence: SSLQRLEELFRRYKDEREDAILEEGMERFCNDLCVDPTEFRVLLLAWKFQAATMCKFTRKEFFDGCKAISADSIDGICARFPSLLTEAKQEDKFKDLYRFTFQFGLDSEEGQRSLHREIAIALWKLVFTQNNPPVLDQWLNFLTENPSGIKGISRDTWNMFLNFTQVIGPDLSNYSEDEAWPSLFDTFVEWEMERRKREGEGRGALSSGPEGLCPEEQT
On the procedure: (§1) Protein samples were buffer matched by desalting over a NAP-5 column (GE Healthcare) into 50 mM Hepes, 125 mM NaCl, 1 mM BME, pH 7.0 (ITC buffer). Peptides were dissolved by weight to a final concentration of 10 mM in ITC buffer and diluted further in ITC buffer as required for the experiments. […] The peptide ligands (4 mM) were constantly injected (1.5 μl). The interval time between each injection was 3 minutes and the duration of each injection was 3 seconds. […] Peptide ligands (250 μM) were constantly injected (2.5 μl). The interval time between each injection was three minutes and the duration of each injection was 5 seconds. […] The interval time between each injection was 3 minutes and the duration of each injection was 5 seconds. Obtained spectra were evaluated using Origin (V 7.0) to determine heats of binding and Kd values.

The target in test [2] is T2, hDcn1^P (potentiating neddylation / PONY domain of human Dcn1, DCUN1D1) (Homo sapiens, UniProt Q96GG9 62-259).
T2 construct: also called DCUN1D1^P; SCCRO PONY domain
On the procedure: as §1

Test [3] addresses hDcn2^P (PONY domain of human DCUN1D2) (Homo sapiens, UniProt Q6PH85 62-259). The method, then: as §1

Starred links: 1 amine or outer side, 2 acyl side, 3 side chain; linkers in the order of their positions; H or OH if unused. Positions of bridges follow the written chain, without caps; N, C: chain ends. Non-standard residues stand in square brackets, D forms with d. *: point of attachment. αMeNva(5-ylidene) = C[C@@](CCC=[*:3])(N[*:1])C(=O)[*:2]; S8 = C=CCCCCCC[C@](C)(N)C(=O)O; SeMet = C[Se]CC[C@H](N)C(=O)O; S5 = C=CCCC[C@](C)(N)C(=O)O; Nle = CCCC[C@H](N)C(=O)O; For = O=C*

T2 sequence (Q96GG9 62-259): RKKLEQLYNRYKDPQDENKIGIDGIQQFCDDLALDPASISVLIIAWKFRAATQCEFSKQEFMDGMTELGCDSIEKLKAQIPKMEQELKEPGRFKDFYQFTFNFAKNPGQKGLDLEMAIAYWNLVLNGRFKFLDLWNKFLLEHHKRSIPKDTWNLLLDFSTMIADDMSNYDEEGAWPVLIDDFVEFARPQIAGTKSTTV
Chain of hDcn2^P (PONY domain of human DCUN1D2) (Q6PH85 62-259 limits assumed): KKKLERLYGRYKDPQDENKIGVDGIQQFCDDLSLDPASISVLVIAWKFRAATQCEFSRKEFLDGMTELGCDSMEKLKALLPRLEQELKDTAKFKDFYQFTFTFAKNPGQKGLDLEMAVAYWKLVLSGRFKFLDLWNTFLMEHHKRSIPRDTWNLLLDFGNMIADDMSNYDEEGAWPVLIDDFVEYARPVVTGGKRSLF

B1: hUbe2f^Ac1-25 (peptide)
peptide: Ac-MLTLASKLKRDDGLKGSRTAATASD-NH2
notes: Synthetic peptide of the N-terminus of human Ube2f; also called Acetyl-hUbe2f^1-25
Turning to B1, binding in test [1] was characterised by a dissociation constant (Kd) of 2000 nM.

B2: yUbc12^Ac1-12 (NorLeu) (peptide)
peptide: Ac-[Nle]LKLRQLQKKKQ-NH2
SMILES: CCCC[C@H](NC(C)=O)C(=O)N[C@@H](CC(C)C)C(=O)N[C@@H](CCCCN)C(=O)N[C@@H](CC(C)C)C(=O)N[C@@H](CCCNC(=N)N)C(=O)N[C@@H](CCC(N)=O)C(=O)N[C@@H](CC(C)C)C(=O)N[C@@H](CCC(N)=O)C(=O)N[C@@H](CCCCN)C(=O)N[C@@H](CCCCN)C(=O)N[C@@H](CCCCN)C(=O)N[C@@H](CCC(N)=O)C(N)=O
Take B2: the results for the Kd in test [2] and in test [3] were 628 nM and 793 nM, respectively.
Regarding Ac-MIKLFKLKQEKK-NH2 (bridge 6-10; also: K6-E10 staple, chemistry not given here, Stapled synthetic peptide) [hUbc12^Ac1-12 (Met) KE 6, 10], the dissociation constant (Kd) (usually the constant that tells how readily two partners part at equilibrium) in test [2] came to 483 nM.
As to Ac-MIK(Ac)LFSLKQQKKEEESAGGTKGSSKK-NH2 (Synthetic peptide) [hUbc12^Ac1-Ac3-26], the Kd in test [2] turned out to be 4600 nM.

B3: hUbc12^Ac1-12 (Met) Oct:But 6, 10 (peptide)
peptide: Ac-MIKLF[S8]LKQ[αMeNva(5-ylidene)]KK-NH2
modifications: staple 6-10
notes: Stapled synthetic peptide; by the label the octenyl- and butenyl-alanine residues stand in the reverse order of the But:Oct peptide
B3: in test [2], the Kd stood at 129 nM.
The same measure, in the same setting: the figure for XIKLFSLKQQKK (N-terminal acetyl; norleucine at position 1 in place of Met; C-terminal amide, Synthetic peptide) [hUbc12^Ac1-12 (NorLeu)] is 5600 nM.

B4: hUbc12^Ac1-12 (NorLeu) 5, 9 (peptide)
peptide: Ac-[Nle]IKL[S5]SLK[S5]QKK-NH2
modifications: staple 5-9
SMILES: CCCC[C@H](NC(C)=O)C(=O)N[C@H](C(=O)N[C@@H](CCCCN)C(=O)N[C@@H](CC(C)C)C(=O)N[C@@]1(C)CCCC=CCCC[C@@](C)(C(=O)N[C@@H](CCC(N)=O)C(=O)N[C@@H](CCCCN)C(=O)N[C@@H](CCCCN)C(N)=O)NC(=O)[C@H](CCCCN)NC(=O)[C@H](CC(C)C)NC(=O)[C@H](CO)NC1=O)[C@@H](C)CC
notes: Stapled synthetic peptide
In the case of B4, the Kd in test [2] amounted to 440 nM.
The same measure, in the same setting: the figure for Ac-MIKLKSLKEQKK-NH2 (bridge 5-9; also: K5-E9 staple, chemistry not given here, Stapled synthetic peptide) [hUbc12^Ac1-12 (Met) KE 5, 9] is 1060 nM.

B5: hUbc12^Formyl-1-26 (peptide)
peptide: For-MIKLFSLKQQKKEEESAGGTKGSSKK-NH2
SMILES: CC[C@H](C)[C@H](NC(=O)[C@H](CCSC)NC=O)C(=O)N[C@@H](CCCCN)C(=O)N[C@@H](CC(C)C)C(=O)N[C@@H](Cc1ccccc1)C(=O)N[C@@H](CO)C(=O)N[C@@H](CC(C)C)C(=O)N[C@@H](CCCCN)C(=O)N[C@@H](CCC(N)=O)C(=O)N[C@@H](CCC(N)=O)C(=O)N[C@@H](CCCCN)C(=O)N[C@@H](CCCCN)C(=O)N[C@@H](CCC(=O)O)C(=O)N[C@@H](CCC(=O)O)C(=O)N[C@@H](CCC(=O)O)C(=O)N[C@@H](CO)C(=O)N[C@@H](C)C(=O)NCC(=O)NCC(=O)N[C@H](C(=O)N[C@@H](CCCCN)C(=O)NCC(=O)N[C@@H](CO)C(=O)N[C@@H](CO)C(=O)N[C@@H](CCCCN)C(=O)N[C@@H](CCCCN)C(N)=O)[C@@H](C)O
notes: Synthetic peptide; also called Formyl-hUbc12^1-26
As to B5, the Kd in test [2] was 9700 nM.

B6: hUbc12^Ac1-12 (Met) 5, 9 (peptide)
peptide: Ac-MIKL[S5]SLK[S5]QKK-NH2
modifications: staple 5-9
notes: also called Acetyl-hUbc12^1-12(5:9Staple)
As for B6, the Kd in test [2] was 153 nM.
On the same count and under the same terms, the figure for Ac-[SeMet]IKL[S5]SLK[S5]QKK-NH2 (staple 5-9, Stapled synthetic peptide) [hUbc12^Ac1-12 (SeMet) 5, 9] is 182 nM.
